Biological target: T1, ectodomain of human CTLA-4 (aa 31-161) (human, UniProt P16410-1)
T1 construct: CTLA-4, human, ectodomain, residues 31-161 of UniProt P16410-1; Homodimer held by a disulfide bond (non-reducing SDS-PAGE and crystal structure); Cloned into pET-21a; also called extracellular domain of CTLA-4
Test: SPR; BIAcore T100, CM5 chip, CTLA-4 immobilised (5 μg/ml), scFv flowed at 6.25-200 nM, room temperature, HBS-EP (150 mM NaCl, 10 mM HEPES pH 7.4, 0.005% Tween-20), 1:1 Langmuir model
Settings: both partners purified

T1 sequence (P16410 31-161): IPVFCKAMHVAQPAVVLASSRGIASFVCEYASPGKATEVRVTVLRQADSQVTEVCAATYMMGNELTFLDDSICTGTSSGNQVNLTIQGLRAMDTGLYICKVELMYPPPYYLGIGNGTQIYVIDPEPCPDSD

Kd: 5.89 nM | koff: 0.0018 s⁻¹ | kon: 308000 M⁻¹ s⁻¹
B1: scFv fragment of tremelimumab (scFv, V domains shown)
VH: QVQLVESGGGVVQPGRSLRLSCAASGFTFSSYGMHWVRQAPGKGLEWVAVIWYDGSNKYYADSVKGRFTISRDNSKNTLYLQMNSLRAEDTAVYYCARDPRGATLYYYYYGMDVWGQGTTVTVSS
VL: DIQMTQSPSSLSASVGDRVTITCRASQSINSYLDWYQQKPGKAPKLLIYAASSLQSGVPSRFSGSGSGTDFTLTISSLQPEDFATYYCQQYYSTPFTFGPGTKVEIK
notes: VL of tremelimumab (IGKV1-39 framework); the Fab of tremelimumab is in PDB 5GGV; linker, printed as GG(GGSGG)3GG; VH of tremelimumab (IGHV3-33 framework); Built as VL-GG(GGSGG)3GG-VH in pET21a; The parent antibody is an IgG2; only the scFv was made here; also called tremelimumab-scFv; CP-675,206
